Measured values published in the domain aggregation screens of Martell et al. (2025).

Experiment: soluble fraction after stress (log2 fold change); higher = more stays soluble; pooled small domains, quantitative proteomics
Details: stress: 50 degC
Method in brief: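 The stress applied to every library was 50°C. These custom libraries of small protein domains were pooled and measured at high throughput with quantitative proteomics as the read-out. Aggregation propensity is expressed as the base-two logarithm of the fold change in how much of each protein remains soluble. The higher the value, the more of that protein stays in solution.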

| Sequence | soluble fraction (log2) |
| --- | --- |
| HMTKASEELYFRLKEELGTGVIVEHKKYGEGVVTQLDDRLVHIMFQDDTLRMMDLKILANAGLLKVK | 0.189 |
| HMTKDYVVIYEGLAQTEAVEILGKLQEMGVSAKVDHNDSILVLKDEEDQIRMALATEGYPKS | -0.0917 |
| HMTKEEKEKREKYEKLMKKADELVTAKNHKEAVTVLGQAKAYANPQQTKEIEEKIKAQTAELDKG | 0.239 |
| HMTKGVQMFAEQLKRTRQSRHYSQAEIASKLGVTQQAIAKWETGVSTPSPTSISKLSDILGISTDVLLKGA | 0.0763 |
| HMTKIAFPQMLNKYRLQKNLTMEQLAEEVGKTKSTISKWEAGTRSPKIYEIEEIAKYFGVEPQTMMF | -0.453 |
| HMTKINAPMPGNILDVKVNVGDHVEANQLVLMLEAMKMENEIFTPVAGTVVGVHVKKGDSVNSDDLLISI | -0.228 |
| HMTKKEFLDILTESLAGNVPASEIEENIRYYKDYIENGEESEEKALEQLGDPHLIARTIIDSFIA | -0.127 |
| HMTKLLSALQADKFAKKLANDTNFGSNFARMGESAMDFTNRLVEELQRDEGKVANYMPYLTKLGF | 0.312 |
| HMTKLSPKEKSILHIIGDNAGIKSGQIAKRLDIPSPTVKRILSDLVSQNLIEKFGTGPGTNYSI | 0.0531 |
| HMTKLTTDERSVYLHIQNKPGVSASSIREALGYKKSKLTSILAQLLEVHKIIDTEGTGKSLKYIL | -0.0662 |
| HMTKMTPNRQLVLSVLQSSGKPLSAYELLDRLREQGTQWQPPTAYRALDYLVEQGLAHYLQSIQKYV | -1.1 |
| HMTKNEFLASFQNELQKRHIPDWEDVVSEYEQHFALKQADGFSEEEIAAKLGAPAELAAQFEA | -0.0437 |
| HMTKQIILVHVAGKVKKPDVYPLLQGSRVADAIKAAGGAKKGVELNDINLARVLIDGEQVFVGYVPE | -1.58 |
| HMTKQRSAIMNLLAERNTPLTAEEIGEAIAPSYPKLALSTVYRNLELFTNAGLLEKSFFQDGITRYSLTK | -0.429 |
| HMTKRTEPSILQNFDTEIAELIAKNRGISIMDALRIFLASKTHEMLENDEMKLWYFSPLAVFDMWENE | 0.088 |
| HMTKSIDFDFREDGVYIKADKDVTIVDIVTKIDLRRIQSVDLTKIKQMLEIGSLDNWIKIAEPQMEK | 0.0472 |
| HMTKSTLQRQKIIADLIESGNISSQNQLKGLLKKNSLLITQATLSRDLSELGAIKKRQKDGLLVYVLPK | -0.511 |
| HMTKTKADKIDYAIGDSGTEPPTEDKWTDLAHLPLIKAGQFQWTRRTEYYSDGSTAVSYNIAKSE | 0.0286 |
| HMTKYKEIVDQLRTNIYEGVFPALSKLPEQTALAKRFQTSRMTIQKALNQLKQEGLISTKRGHGTYVNSAT | -0.298 |
| HMTKYVEGQKYVFEFRDGTITIGTYLRTGEGNIYIKDLSGEDIYIPKIMIAQIHLATDDNVKGDEFWF | -0.353 |
| HMTLDSLEKLSVNDLEKMLVNMPVGYKTIFLLSVIDEYSHKEIGELLGITPETSRSQLFRAIKWIKTNIF | -0.428 |
| HMTLGARTLAAIQSLPKVQQAVFTMKHFEGLKYREISQITGTSEGALKASYHIALEKIKAFLREK | -2.53 |
| HMTLGEHILQYRTARGWSQEDLANALEVSRQSVSKWETDASTPELDKIVRLSEIFQVSIDELVTGKA | 0.108 |
| HMTLGENLQNLRKEAGLSQEQVAQQLFVSRQTVSKWENNLAEPGVENLKALARLYGVTLDRLVGM | -0.0572 |
| HMTLKVQLSEISKMVSLSYIAKKYFNKSQSWLSQRINGNTIHNKPAKFTSEELATLQFALKDIGNILNSTV | -2.8 |

| Sequence | soluble fraction (log2) |
| --- | --- |
| HMTLLVPASKEAILGGLAKIDALKVILKPEKDYSKTHAMTIGTKDEVIAKLDSFLSGMDSEKNQVLIQEYM | 0.107 |
| HMTLSDIGHAVRTRRTELGLSQVQLARLSGLSRQTLVGLENGTLNDLGINRVAQLLAVLGLDAP | -0.827 |
| HMTLSHAINRLRLNANMSQEQFAGLFHVSQQSVQKWESGDSVPELSKLIAIAKHFGISLDALILGN | -0.614 |
| HMTLTEQQITDNYKELRKIINDTFSGLRLDKLNHMYDDLEDRMVVAPASSVEHYHNSKVGGYVEHILHVI | -0.187 |
| HMTLTIEDGYVNAKLKTTVEGLAEDSTIKVDSIEYTNAGKNDILTVFVEDKPYRVEKYKINIAPEDS | 0.0185 |
| HMTLVSALDQKTKDSAYYRGTYLAGKISAGKMTKQEAVADIMKNYDGNTAAMKVAAEKAGVSDLLSQTVL | 0.234 |
| HMTMKQVFIETDANVNQKIMLNEKEAHHLFDVLRTSDKETIRVVTNTSQVFLARVQQKPYIYLFDKMTVE | -1.41 |
| HMTMNYFIIENNQQVGPLTLEQLVARNITSDTLVWKEGMEDWQPAWKVDELHTVLDQIRANAEQ | -0.0599 |
| HMTMVVIMNADATQADIEGVISAIEEKGLEAKVMEGAHQKIVGVIGDKTKLAATPLDAMHGVETTVAIS | -0.0878 |
| HMTNATVGQIKKLARASILYGNSNLSGNRYTYKANTTVTILQNISSNVDKIRVNVTGRVAYIDNSNYSSST | -3.56 |
| HMTNEQLSKAKSWVQIAVYAAEKLYGAGNGDQKLVYAEEILRKHGIRLDTATLKAMIDAQIKEMEN | -0.149 |
| HMTNEWRKILSNLNGKYQIVMELFYVDGFSTKEIARMLHITEVNVRSRMVRGRKQLEQILTVR | -0.15 |
| HMTNPPITTEARNLVVEQLKELNALHPEKARELADSYKKEFNVPKVIGHITEARHGEFLALAISKIDES | -0.144 |
| HMTNPPTPADTLFNTVRGVLQSILKSPMKDTEVASALNVSKAQARSWLQRLSDEGLIEKRKNPTAYVL | -0.238 |
| HMTNTYEVIKNDIIFGVLPPLKKLKLLELKKKYITSVSTLREILSRLSGDGFVVSKEQKGFYVSAV | -0.00437 |
| HMTNVNSLIGKKAIVIQDIDNLKSTGQVKIGGEIWSAQSESNDIISKDTEVEIVKIDGVKLIVRLVPV | 0.1 |
| HMTNYNTEKIIPEEQAGKRLDVVLANIFPEFSRSRLKNWIIDGFILVDGKVLRPRDFVTGGELVSIDVIV | -0.1 |
| HMTPADEAGNDLDIGQTVKILRRVSEGQYEVSYRGTTWQARALNAQAAVEPSFAVIGGKEGNILLVHL | 0.122 |
| HMTPDVAEFRERLRQILPGEQIEVRTANDGIVLSGTVSSIARLDAALQLAERYAPSRVSNLMSVG | 0.19 |
| HMTPEPVREALTFQEGRVFALAAKNMTNAEIAQSLSLKLKTVENYMSIIYQKLALKNRYELLVYARKSGV | -0.631 |
| HMTPESSLHSGLGKILHDALTAKIQLTNFEAKFLSDMQSKYDLNGSFSWLSSKQQTTLEKILAKYGR | -0.841 |
| HMTPFLVRVDISDLNIRTGAGTNYSRTGQYTGKGIFTILEVKSGQGSDAGWGRLKSGAGWISLDYTTR | -2.82 |
| HMTPIELIEKTIELIENERKVQKLQQKELALKADIPFPTYKDFIYKKRASLENILKLFIALRLF | -0.342 |
| HMTPKVAVPSFVGWKFEDVERQLGTMGLIRGKVDNHPSEEYSEGRVIWQSVLGEVEKGKVIDFWVSTGPE | -0.0362 |
| HMTPNATWQDDAQSLLRDLIQHQPVLIQISAAKRLRDQAEQISRITGGDTVTRDHVEAAGHALGMGVT | 0.0517 |

| Sequence | soluble fraction (log2) |
| --- | --- |
| HMTPPLSKIRNMTPDQQRSSVIEARKKGYNLLQLEGLAKAQGATPADLLVLRNAWAQSEFDQKR | 0.149 |
| HMTPQVALNDTETAIYEKMKQEKQMLLGELRAQFDISNKLWDTSLKTLTKNQLLAVSKEDDLLFVKL | 0.113 |
| HMTPQVTVPDVTGQSFASAKQVLESLGLTVKQQGSTGENDKVIGQNPTSGNADKGATITLTTQDS | 0.343 |
| HMTPSTVQVHVAGAVKNPGVYVLLENARNIDAITAAGGATSEADLERINLSEFIRDGQRVYVPYKGDPI | 0.269 |
| HMTPTITNALEEAEKAVSEVQEGKKEIELTPQGAYIRHLQHAIADRYGISSTSTGRDPKRKVIIY | -0.108 |
| HMTPTNILIVEDEKEIRRFVRTALESEGLRVFESETLQRGLIEAGTRKPDLIILDLGLPDGDGLSYIRDLR | -0.123 |
| HMTPTRQATVSVAALNVREQPSLQGRRLGKLTQGTTLTVVGPPGEWLKIEYKGETGFVYASYTSLG | -1.59 |
| HMTPTVEAAKEEVLRVLASAAPRGLTRTELEAEVSFRRTKLRDTLVELERIGRIDSVGRRGNATTYRLIG | -0.615 |
| HMTPVEVNARGVHVDFSKGGILLEDVVRHLILEALRASEWKRGPAAQLLGISKETLRYRMEKYRLYPP | -2.26 |
| HMTPYEVLVYESLKQKILSGGYAAGEKIPEQSVSEELGVSRSPLRSAIRRLASEGLIEYYPYRGAFVKA | -0.347 |
| HMTQEAMRSLRKSLQNLSSRQQVIFMLRHYEGLALKEIAEHLGLETGTVKAHLHRAVTQLRKDLVE | -1.68 |
| HMTQHDIVPLMLKMVDVLTQFVELDIPFLQQERQTRLAALNAMMGRADVSLAEKYRRIMEAYQVETEYG | -0.0938 |
| HMTQLEVDLFERLITISGVGPRLALAVLSGLEPPDLLRAIQDSDIVRLQGIPGVGKKTAERISLELKDKLS | -0.963 |
| HMTQQYVEWKVYNVTTIKNKYGFRVKLIFQDGSDATQQKGGFTSKKAAEQARTEVIGQLYSNTYVVY | -4.49 |
| HMTQSGLTQWEFNMLRQALIEMLGEKPGSVFELARLLPLEQEKNVQALRFLLDHDDQFHLKDEYISFVKRT | -1.92 |
| HMTQTAVFSKGEQEYYFPLSKVLFFETDGNTINVHTADDIYETRYRLYELEEMLPGSFMRISKSAVVNTNR | -0.0904 |
| HMTRAEVQALLEKQAKDFEVEVVHRGWKKTVQTPEFAGWYSQQPAEIKALAESDDPAVAIRMLDLFSGTK | -0.0852 |
| HMTRETTQAWWEARQTLPSGEQRSAASLSQEASHVRRFYRWAMQQGLTDRNPADWLPDVRQK | -0.232 |
| HMTRIHEEVVNQVHDLVKEGRFKAGDQLPSERELAEIFKVSRTSVREALRALETQGLIISRTGMGNFIAD | -0.0448 |
| HMTRILTEDDIVNFLIRQPDTAYIIAKSFNENERKVKELLDLLIKKNKVREEIVNGVVSYAVN | -0.199 |
| HMTRKQTIYEFLRRMKSQHGLDAVYSTEEIANAVGVSRANVSSDLNRLFEEQLVEKLPGWPVKYRA | 0.0186 |
| HMTRNEFMTALRKRLSHLPAEEQDAALKYYEEYFDEAESEEEAARQLGSPDAIADRILADYGAG | 0.0132 |
| HMTRPLVILEDVKFPSYNEIVSLTLPDGTRRGGQVLEVSGNKAIVQVFEGTSGIDVKDTHIELTKSS | 0.0245 |
| HMTRQEFIRKLQEALNGKLDAATIQDHLKFYDDYIIEEMRKGKSEQEVLELLGDPWAIAKTIVDAS | 0.349 |
| HMTRQKEAILALLTDSRGEALSASELLARLTRSGSSIGRTTVYRLLSQLVDDGVVRAWRDASRGITLYELS | -0.113 |
